Measured values: paper PMC4942575, “Plastid-nucleus communication involves calcium-modulated MAPK signalling”

How the values were obtained:
[1] = target: MBP-ABI4 WT (Arabidopsis thaliana, UniProt A0MES8 1-328); assay: EMSA; poly(dI/dC); competed by excess unlabelled probe; 10 ul: 2 ug protein, 200 fmol biotin probe, 1 ul poly(dI/dC), 1x LightShift binding buffer, 5% glycerol; room temperature 20 min; 6% native PAGE; pH and salt not given; conditions: protein: recombinant; tags: MBP (pETMALc-H); label: 3' biotin
MBP-ABI4 WT, sequence (A0MES8 whole entry): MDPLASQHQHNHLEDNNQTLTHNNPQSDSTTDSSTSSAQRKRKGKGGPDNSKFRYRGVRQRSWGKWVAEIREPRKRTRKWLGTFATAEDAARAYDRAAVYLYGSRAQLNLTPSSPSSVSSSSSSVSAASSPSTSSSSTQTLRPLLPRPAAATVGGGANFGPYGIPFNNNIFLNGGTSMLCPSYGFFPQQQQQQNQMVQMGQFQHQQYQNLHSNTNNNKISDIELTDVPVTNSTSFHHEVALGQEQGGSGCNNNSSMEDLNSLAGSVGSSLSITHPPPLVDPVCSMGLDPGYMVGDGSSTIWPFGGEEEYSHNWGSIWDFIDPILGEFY

[2] = target: MBP-ABI4 AAA (Arabidopsis thaliana, UniProt A0MES8 1-328, T111A;S114A;S130A); assay: EMSA; poly(dI/dC); 10 ul: 2 ug protein, 200 fmol biotin probe, 1 ul poly(dI/dC), 1x LightShift binding buffer, 5% glycerol; room temperature 20 min; 6% native PAGE; pH and salt not given; conditions: protein: recombinant; tags: MBP (pETMALc-H); label: 3' biotin
MBP-ABI4 AAA, sequence (A0MES8 whole entry T111A/S114A/S130A): as the sequence (A0MES8 whole entry) above, with T111A, S114A, S130A counted along it

B1: LHCB promoter probe (dsDNA)
DNA 1: GACTAGAGACTGCCACATAAGAATAGTAAAGTTA
DNA 2: TAACTTTACTATTCTTATGTGGCAGTCTCTAGTC
binding result [1]: binds
binding result [2]: no binding
